Among the data in the RNAGym collection of RNA variant scans (doi:10.7554/elife.80360) are self-cleavage values, retold here.

First the molecules themselves.
B1: CPEB3 Ribozyme (parent)
chain: GGGGGCCACAGCAGAAGCGUUCACGUCGCGGCCCCUGUCAGAUUCUGGUGAAUCUGCGAAUUCUGCUGU

The variants in this data set derive from B1. Description: self-cleavage, relative activity (ratio to wild type); higher = more cleavage; co-transcriptional.
GGGGGCCACAGCAGAAGCGUUCACGUCGCGGCCCCUGUCAGAUUCUGGUGAAUCAGCCAAUUCUGCUGU [U55A G58C]: the self-cleavage worked out at 0.993.

For the variant GGGGGCCACAGCAGAAGCGUUCACGUCGCGGCCCCUGUCAGAUUCUGGUGAAUCAGCUAAUUCUGCUGU [U55A G58U], the self-cleavage was determined as 0.988.

Consider GGGGGCCACAGCAGAAGCGUUCACGUCGCGGCCCCUGUCAGAUUCUGGUGAAUCACCGAAUUCUGCUGU [U55A G56C], for which the self-cleavage stood at 0.636.

Take GGGGGCCACAGCAGAAGCGUUCACGUCGCGGCCCCUGUCAGAUUCUGGUGAAUCAACGAAUUCUGCUGU [U55A G56A]: the self-cleavage was 0.976.

On to GGGGGCCACAGCAGAAGCGUUCACGUCGCGGCCCCUGUCAGAUUCUGGUGAAUCAUCGAAUUCUGCUGU [U55A G56U], for which the self-cleavage was 0.694.

As to GGGGGCCACAGCAGAAGCGUUCACGUCGCGGCCCCUGUCAGAUUCUGGUGAAUCGGCGAAUACUGCUGU [U55G U62A], the self-cleavage was determined as 0.427.

On to GGGGGCCACAGCAGAAGCGUUCACGUCGCGGCCCCUGUCAGAUUCUGGUGAAUCGGCGAAUCCUGCUGU [U55G U62C], for which the self-cleavage was found to be 0.517.

With GGGGGCCACAGCAGAAGCGUUCACGUCGCGGCCCCUGUCAGAUUCUGGUGAAUCCGCGUAUUCUGCUGU [U55C A59U], the self-cleavage amounted to 0.545.

With GGGGGCCACAGCAGAAGCGUUCACGUCGCGGCCCCUGUCAGAUUCUGGUGAAUCAGCGAAUUCUGCCGU [U55A U67C], the self-cleavage was 0.906.

Take GGGGGCCACAGCAGAAGCGUUCACGUCGCGGCCCCUGUCAGAUUCUGGUGAAUCCGCGAAUUCUGCUGC [U55C U69C]: the self-cleavage was determined as 1.06.

On to GGGGGCCACAGCAGAAGCGUUCACGUCGCGGCCCCUGUCAGAUUCUGGUGAAUCCGCGAAUUCUGCUGA [U55C U69A], for which the self-cleavage is 0.971.

With GGGGGCCACAGCAGAAGCGUUCACGUCGCGGCCCCUGUCAGAUUCUGGUGAAUCCGCGAAUUCUGCUGG [U55C U69G], the self-cleavage was 1.01.

Regarding GGGGGCCACAGCAGAAGCGUUCACGUCGCGGCCCCUGUCAGAUUCUGGUGAAUCGGCGAAGUCUGCUGU [U55G U61G], the self-cleavage amounted to 0.547.

Turning to GGGGGCCACAGCAGAAGCGUUCACGUCGCGGCCCCUGUCAGAUUCUGGUGAAUCGGCGAACUCUGCUGU [U55G U61C], the self-cleavage stood at 0.293.

In the case of GGGGGCCACAGCAGAAGCGUUCACGUCGCGGCCCCUGUCAGAUUCUGGUGAAUCAGCGAAUUCUGCUAU [U55A G68A], the self-cleavage was 0.942.

As for GGGGGCCACAGCAGAAGCGUUCACGUCGCGGCCCCUGUCAGAUUCUGGUGAAUCAGCGAAUUCUGCUUU [U55A G68U], the self-cleavage came to 0.992.

Turning to GGGGGCCACAGCAGAAGCGUUCACGUCGCGGCCCCUGUCAGAUUCUGGUGAAUCCGCGAAUUCUGUUGU [U55C C66U], the self-cleavage was determined as 0.816.

Turning to GGGGGCCACAGCAGAAGCGUUCACGUCGCGGCCCCUGUCAGAUUCUGGUGAAUCCGCGAAUUCUGGUGU [U55C C66G], the self-cleavage is 0.437.

For the variant GGGGGCCACAGCAGAAGCGUUCACGUCGCGGCCCCUGUCAGAUUCUGGUGAAUCCGCGAAUUCUGAUGU [U55C C66A], the self-cleavage amounted to 0.342.

For the variant GGGGGCCACAGCAGAAGCGUUCACGUCGCGGCCCCUGUCAGAUUCUGGUGAAUCCGCGAAUUGUGCUGU [U55C C63G], the self-cleavage worked out at 0.532.

With GGGGGCCACAGCAGAAGCGUUCACGUCGCGGCCCCUGUCAGAUUCUGGUGAAUCCGCGAAUUUUGCUGU [U55C C63U], the self-cleavage worked out at 0.85.

As for GGGGGCCACAGCAGAAGCGUUCACGUCGCGGCCCCUGUCAGAUUCUGGUGAAUCCGCGAAUUAUGCUGU [U55C C63A], the self-cleavage is 0.464.

For the variant GGGGGCCACAGCAGAAGCGUUCACGUCGCGGCCCCUGUCAGAUUCUGGUGAAUCAGCGAAUGCUGCUGU [U55A U62G], the self-cleavage amounted to 0.531.

As to GGGGGCCACAGCAGAAGCGUUCACGUCGCGGCCCCUGUCAGAUUCUGGUGAAUCGGCGAAUUCUGCUCU [U55G G68C], the self-cleavage was found to be 0.972.

For GGGGGCCACAGCAGAAGCGUUCACGUCGCGGCCCCUGUCAGAUUCUGGUGAAUCGGCGAAUUCUGCUAU [U55G G68A], the self-cleavage was determined as 0.951.

On to GGGGGCCACAGCAGAAGCGUUCACGUCGCGGCCCCUGUCAGAUUCUGGUGAAUCGGCGGAUUCUGCUGU [U55G A59G], for which the self-cleavage was found to be 0.81.

For the variant GGGGGCCACAGCAGAAGCGUUCACGUCGCGGCCCCUGUCAGAUUCUGGUGAAUCGGCGCAUUCUGCUGU [U55G A59C], the self-cleavage came out at 0.364.

Consider GGGGGCCACAGCAGAAGCGUUCACGUCGCGGCCCCUGUCAGAUUCUGGUGAAUCGGCGAAUUGUGCUGU [U55G C63G], for which the self-cleavage was found to be 0.399.

GGGGGCCACAGCAGAAGCGUUCACGUCGCGGCCCCUGUCAGAUUCUGGUGAAUCGGCGAAUUAUGCUGU [U55G C63A]: the self-cleavage was found to be 0.345.

As for GGGGGCCACAGCAGAAGCGUUCACGUCGCGGCCCCUGUCAGAUUCUGGUGAAUCCGCGAAUGCUGCUGU [U55C U62G], the self-cleavage is 0.559.

Take GGGGGCCACAGCAGAAGCGUUCACGUCGCGGCCCCUGUCAGAUUCUGGUGAAUCCUCGAAUUCUGCUGU [U55C G56U]: the self-cleavage was 0.686.

With GGGGGCCACAGCAGAAGCGUUCACGUCGCGGCCCCUGUCAGAUUCUGGUGAAUCCGCGAAUUCUCCUGU [U55C G65C], the self-cleavage was found to be 0.416.

Consider GGGGGCCACAGCAGAAGCGUUCACGUCGCGGCCCCUGUCAGAUUCUGGUGAAUCAGCGAAGUCUGCUGU [U55A U61G], for which the self-cleavage is 0.6.

For the variant GGGGGCCACAGCAGAAGCGUUCACGUCGCGGCCCCUGUCAGAUUCUGGUGAAUCAGCGAAAUCUGCUGU [U55A U61A], the self-cleavage is 0.635.

For GGGGGCCACAGCAGAAGCGUUCACGUCGCGGCCCCUGUCAGAUUCUGGUGAAUUUGCGAAUUCUGCUGG [C54U U69G], the self-cleavage stood at 1.06.

Turning to GGGGGCCACAGCAGAAGCGUUCACGUCGCGGCCCCUGUCAGAUUCUGGUGAAUUUGCGAAUUCUGCUGC [C54U U69C], the self-cleavage turned out to be 1.07.

GGGGGCCACAGCAGAAGCGUUCACGUCGCGGCCCCUGUCAGAUUCUGGUGAAUCCGCGACUUCUGCUGU [U55C A60C]: the self-cleavage was found to be 0.306.

For GGGGGCCACAGCAGAAGCGUUCACGUCGCGGCCCCUGUCAGAUUCUGGUGAAUCCGCGAAUUCGGCUGU [U55C U64G], the self-cleavage was determined as 0.531.

For the variant GGGGGCCACAGCAGAAGCGUUCACGUCGCGGCCCCUGUCAGAUUCUGGUGAAUCCGCGAAUUCCGCUGU [U55C U64C], the self-cleavage came to 0.662.
